From US20100291074A1, “CYCLOPHILIN D-AMYLOID BETA INTERACTION POTENTIATES MITOCHONDRIAL DYSFUNCTION IN A TRANSGENIC MOUSE MODEL OF ALZHEIMER'S DISEASE” (COLUMBIA UNIVERSITY IN THE CITY OF NEW YORK, priority 2007, published 2010)

Biological target: Aβ (amyloid beta peptide, length and aggregation state not specified; ˜4 kDa band) (UniProt P05067)
Assay: cell-based or functional assay

Substance: mouse CypD, endogenous, in brain mitochondria and cultured cortical neurons of nonTg and Tg mAPP mice (from UniProt Q99KR7 30-206) (enzyme)
- mitochondrial ROS (MitoSox staining) in brain slices, Tg mAPP/CypD-/- versus Tg mAPP mice: 80%
